Data as given in PMC6739165.

Biological target: mCerulean-Hsp70 (UniProt P0DMV8)
Assay: FRET or BRET

Sequence of UniProt P0DMV8 (P0DMV8 whole entry): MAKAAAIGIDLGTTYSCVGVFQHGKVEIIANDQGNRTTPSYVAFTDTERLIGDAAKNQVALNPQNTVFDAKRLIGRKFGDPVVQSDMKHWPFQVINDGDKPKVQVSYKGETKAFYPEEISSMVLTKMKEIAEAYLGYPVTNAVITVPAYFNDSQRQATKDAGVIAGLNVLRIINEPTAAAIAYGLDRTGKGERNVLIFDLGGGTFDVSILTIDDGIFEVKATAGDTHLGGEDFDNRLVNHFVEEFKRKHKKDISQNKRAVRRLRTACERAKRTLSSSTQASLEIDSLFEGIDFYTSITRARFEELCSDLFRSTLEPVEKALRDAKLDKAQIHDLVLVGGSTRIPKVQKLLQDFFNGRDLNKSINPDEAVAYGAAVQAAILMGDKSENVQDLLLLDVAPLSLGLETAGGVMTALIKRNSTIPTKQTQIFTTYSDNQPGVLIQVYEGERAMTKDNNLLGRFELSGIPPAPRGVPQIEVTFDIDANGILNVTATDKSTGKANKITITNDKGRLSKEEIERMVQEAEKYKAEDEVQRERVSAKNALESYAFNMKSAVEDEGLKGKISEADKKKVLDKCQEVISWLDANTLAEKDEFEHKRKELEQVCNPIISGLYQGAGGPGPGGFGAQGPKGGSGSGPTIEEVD

## mVenus-OLA1 (from UniProt Q9NTK5 1-396) (natural protein)
  percent FRET efficiency: 33%
